Here are results for 1 molecule from patent US20240327504A1 (MABLOC, published 2024).

Common to all, as to assay: cell-based or functional assay
Assay [1] addresses SARS-CoV-2 Spike, Kappa variant (SARS-CoV-2, UniProt P0DTC2 14-1273).
Assay [2] has as its target T1, SARS-CoV-2 Spike, Beta variant (SARS-CoV-2, UniProt P0DTC2 14-1273).
Assay [3] deals with T2, SARS-CoV-2 Spike, Gamma variant (SARS-CoV-2, UniProt P0DTC2 14-1273).
In assay [4] the target is SARS-CoV-2 Spike, Epsilon variant (SARS-CoV-2, UniProt P0DTC2 14-1273).
Assay [5] deals with T3, SARS-CoV-2 Spike, Delta variant (SARS-CoV-2, UniProt P0DTC2 14-1273).
The target of assay [6] is SARS-CoV-2 Spike, Eta variant (SARS-CoV-2, UniProt P0DTC2 14-1273).
The target of assay [7] is SARS-CoV-2 Spike, Iota variant (SARS-CoV-2, UniProt P0DTC2 14-1273).
Assay [8] concerns the target T4, SARS-CoV-2 Spike, Alpha variant (SARS-CoV-2, UniProt P0DTC2 14-1273).
In assay [9] the target is SARS-CoV-2 Spike, Lambda variant (SARS-CoV-2, UniProt P0DTC2 14-1273).
Assay [10] addresses SARS-CoV-2 Spike, Zeta variant (SARS-CoV-2, UniProt P0DTC2 14-1273).
Assay [11] concerns the target T1, SARS-CoV-2 Spike, Beta variant. The source holds these as a separate data set.
Assay [12] concerns the target T2, SARS-CoV-2 Spike, Gamma variant. The source holds these as a separate data set.
Assay [13] concerns the target T3, SARS-CoV-2 Spike, Delta variant. This is another data set of the same source.
Assay [14] has as its target T4, SARS-CoV-2 Spike, Alpha variant. This is another data set of the same source.

B1: MR22950 antibody (antibody, V domains shown)
VH: QLQLQESGPGLVKPSEPLSLTCAVSGGFIGTNWWTWIRQPPGKGLEWIGRISGSVGSTSYNPSLKSRVTISRDTSKNQFSLNLNSLTAADTAVYYCAREGRLDTLDWGQGVLVIVSS
VL: QSVLTQPPSASEAARKSVTISCSGSSSNIGSYSVSWYQQFPGTPPKLLIYFNDQRASGVSDRFSGSKSGTSASLAISGLQTEDEADYYCAGWDDSLNGVLFGGGTRLTVLG
With B1, the “Neut50” value in assay [1] was found to be 15 ng/mL; in [2], 33 ng/mL; in [3], 105 ng/mL; in assay [4] it was 10.8 ng/mL; in assay [5] it was 7.8 ng/mL; in assay [6] it was 16 ng/mL. Also, the “Neut50” value in [7] was 0.5 ng/mL; in assay [8] it was 7.3 ng/mL; in assay [9], 19 ng/mL; in assay [10] it was 3.8 ng/mL. The “Neut50 (ng/mL), authentic live virus, plaques on Vero cells” value in assay [11] amounted to 6.9 ng/mL; in assay [12], 12.7 ng/mL; in [13], 20.3 ng/mL; in assay [14], 4.7 ng/mL.
